Tests used:
Type in all cases: cell-based, Pseudomonas saitens KCTC 13107BP
Pcat-cm^R SF1 strain = assay: MIC test of chloramphenicol on recombinant SF1 strain (Pcat promoter); settings: Pseudomonas, 48 h, LB medium, 30° C., 2 days
Experimental: (§1) A pB-P4381 vector comprising cm^R gene (cat) downstream of the promoter of highly expressed gene Gene_4381, which was selected based on RNA-seq data, was constructed as described in (2). This vector was then introduced into SF1 strain by electroporation. As control groups, a pSF-EX1 vector and a pBBR-122 vector were introduced into separate SF1 strains in the same manner as described above.
(§2) Each of the recombinant SF1 strains was cultured in separate wells of a microplate containing LB medium containing predetermined chloramphenicol, and growth thereof was examined to confirm minimal inhibitory concentrations (MICs). Culturing was performed at 30° C. for 2 days in an LB medium supplemented with 400 μg/ml of chloramphenicol by ½ dilution at each concentration.

Ptac-cm^R SF1 strain = assay: MIC test of chloramphenicol on recombinant SF1 strain (Ptac promoter); settings: Pseudomonas, 48 h, read-out: MIC of Chloramphenicol
Experimental: as §1, §2

P4381-cm^R SF1 strain = assay: MIC test of chloramphenicol on recombinant SF1 strain (P4381 promoter)
Experimental: as §1, §2

cat protein = assay: SDS-PAGE analysis of cat protein expression in cell lysates; settings: SDS-PAGE of soluble proteins, SF1 strain
Description: Pcat-cm^R, Ptac-cm^R, and P4381-cm^R cells cultured in (3.1) were lysed to obtain cell lysates, from which soluble proteins were isolated using a BuGBusTER® Protein Extraction Reagent, respectively. The isolated proteins were subjected to SDS-PAGE to examine cat expression.
In FIG. 5, the arrow indicates the position of cat protein.

cat gene = assay: cat mRNA level by RT-PCR; settings: SF1 strain
Description: Pcat-cm^R, Ptac-cm^R, and P4381-cm^R cells cultured in (3.1) were lysed to obtain cell lysates, which were then centrifuged to obtain supernatants, respectively. Each supernatant was subjected to RT-PCR using a set of primers of SEQ ID NOS: 13 and 14.
In FIG. 4, the vertical axis represents a ratio when a cycle threshold (CT) value of Pcat promoter is regarded as 1, and Pcat, Ptac, and P4381 on the horizontal axis represent SF1 strains introduced with […], respectively.

## O=C(N[C@H](CO)[C@H](O)c1ccc([N+](=O)[O-])cc1)C(Cl)Cl [Chloramphenicol, chloramphenicol]
Pcat-cm^R SF1 strain
  MIC: > 100 µg/mL
Ptac-cm^R SF1 strain
  MIC: > 100 µg/mL
P4381-cm^R SF1 strain; Pseudomonas, 48 h, strain P4381-cm^R, LB medium, 30° C., 2 days
  MIC: > 200 µg/mL

B1: P4381: promoter polynucleotide comprising SEQ ID NO: 1 isolated from Gene_4381 of Pseudomonas saitens KCTC 13107BP (nucleic acid)
DNA: TAGACCTGACTGCAGAGCGAATTCGGGCCTGATTCAGGGCAAAAATGGCCAGAAACCATTTTTCGCGTAAAAAATATTCATTCGCGAGTGCTTTTTTTCCAAGCCCGTTTAACCCTCAAGCCCCGGAAACCGGGGCTTCGAGCATTTCAGGCAGCAGACCGAAGCTAACATCGCAGCAAACTGTGGTTCAGGGGGGTTCCAAAGCGCACATTTCGACTATGATAGCTCGGTGTGCCCAGTTGGCCTGAGCAGCACAGTACTACTGAAAATATAAGTTTCTTGGAGATACACC
modifications: Synthetic Pseudomonas saitens KCTC 13107BP
Cat protein
  cat protein expression level compared with Pcat and Ptac: significantly higher
Cat gene; compared with Pcat promoter
  cat mRNA level relative to Pcat: 158 times
Cat gene; compared with Ptac promoter
  cat mRNA level relative to Ptac: 32 times
P4381-cm^R SF1 strain; chloramphenicol MIC, SF1 strain
  MIC relative to that of existing Pcat and Ptac: twice or higher
